In patent US20170247475A1 (Boehringer Ingelheim, published 2017):
Positions count from the first letter of the chain named. Where two headings read alike, the source gives them in different places. Blank lines part the entries; values can stand above or below the binder they belong to.

What was measured:
VEGF [1] = assay: cell-based or functional assay
VEGF [2] = assay: cell-based or functional assay; remark: listed apart in the source
[3] = biological target: T1, recombinant human VEGF165 (human, UniProt P15692-4 27-191); assay: VEGF165/VEGFR2 AlphaScreen
T1 construct: also called hVEGF165; rhVEGF165
Target sequence in this assay (P15692 other isoform, or with tags, fused parts or gaps limits assumed): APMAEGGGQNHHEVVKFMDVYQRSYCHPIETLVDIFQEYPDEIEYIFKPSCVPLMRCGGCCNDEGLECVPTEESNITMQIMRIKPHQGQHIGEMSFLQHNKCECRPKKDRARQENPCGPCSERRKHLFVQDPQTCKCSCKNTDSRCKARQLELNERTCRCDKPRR

[4] = biological target: T1, recombinant human VEGF165; assay: Biacore on VEGF165 (Example 5.5)
Method: (§1) Samples are injected for 2 min and allowed to dissociate up to 20 min at a flow rate of 45 μI/min. In between sample injections, the chip surface is regenerated with 100 mM HCl. HBS-EP+(Hepes buffer pH7.4+EDTA) is used as running buffer. Binding curves are fitted using a Two State Reaction model by Biacore T100 Evaluation Software v2.0.1.
Target sequence in this assay (P15692 other isoform, or with tags, fused parts or gaps limits assumed): as above

[5] = biological target: T1, recombinant human VEGF165; assay: VEGF165/VEGFR2 blocking AlphaScreen
Target sequence in this assay (P15692 other isoform, or with tags, fused parts or gaps limits assumed): as above

[6] = biological target: T1, recombinant human VEGF165; assay: hVEGF165/hVEGFR2-Fc competition AlphaScreen
Method: (§2) Finally, streptavidin donor beads (20 μg/ml) are added and after 1 hour of incubation in the dark, fluorescence is measured on the Envision microplate reader.
Target sequence in this assay (P15692 other isoform, or with tags, fused parts or gaps limits assumed): as above

[7] = biological target: T1, recombinant human VEGF165; assay: hVEGF165/hVEGFR1-Fc competition AlphaScreen
Method: as §2
Target sequence in this assay (P15692 other isoform, or with tags, fused parts or gaps limits assumed): as above

[8] = biological target: T1, recombinant human VEGF165; assay: SPR Biacore T100, hVEGF165 on chip, Two State Reaction model
Method: as §1
Target sequence in this assay (P15692 other isoform, or with tags, fused parts or gaps limits assumed): as above
^{(a)}Heterogeneous binding curve resulting in no 1:1 fit, curves are fitted using a Two State Reaction model by Biacore T100 Evaluation Software v2.0.1

[9] = biological target: T1, recombinant human VEGF165; assay: KD1; SPR Biacore T100 on hVEGF165
[10] = biological target: T1, recombinant human VEGF165; assay: competition AlphaScreen, blocking of hVEGF165 binding to hVEGFR2-Fc
[11] = biological target: T1, recombinant human VEGF165; assay: AlphaScreen competition, 0.05 nM hVEGF165 and 0.05 nM hVEGFR2-Fc; blocked: hVEGFR2-Fc
[12] = biological target: T1, recombinant human VEGF165; assay: as above; remark: listed apart in the source
[13] = biological target: T1, recombinant human VEGF165; assay: as above; remark: listed apart in the source
[14] = biological target: T1, recombinant human VEGF165; assay: as above; remark: listed apart in the source
[15] = biological target: T1, recombinant human VEGF165; assay: AlphaScreen competition, 0.05 nM hVEGF165 and 0.05 nM hVEGFR1-Fc; blocked: hVEGFR1-Fc
[16] = biological target: T1, recombinant human VEGF165; assay: as above; remark: listed apart in the source
[17] = biological target: T1, recombinant human VEGF165; assay: as above; remark: listed apart in the source
[18] = biological target: T1, recombinant human VEGF165; assay: as above; remark: listed apart in the source
[19] = biological target: T1, recombinant human VEGF165; assay: as above; remark: listed apart in the source
[20] = biological target: T1, recombinant human VEGF165; assay: AlphaScreen competition, 0.05 nM hVEGF165 and 0.05 nM hVEGFR2-Fc; blocked: hVEGFR2-Fc; remark: listed apart in the source
[21] = biological target: T1, recombinant human VEGF165; assay: as above; remark: listed apart in the source
[22] = biological target: T1, recombinant human VEGF165; assay: as above; remark: listed apart in the source

% inhibition, VEGF HUVEC proliferation assay (VEGF [1]): 91%
IC50 (nM), VEGF HUVEC proliferation assay (VEGF [1]): 0.36 nM
% inhibition, VEGF HUVEC proliferation assay (VEGF [2]): 92%
IC50 (nM), VEGF HUVEC proliferation assay (VEGF [2]): 0.68 nM
% inhibition [3]: 100%
IC50 [3]: 169 pM
Kd [4]: 560 pM
% inhibition [5]: 100%
IC50 [5]: 152 pM
% inhibition [6]: 100%
IC50 [6]: 160 pM
% inhibition [7]: 41%
IC50 [7]: 900 pM
Kd [8]: 700 pM
kd2 [8]: 0.00024 s⁻¹
B1: VEGFBII23B04 (VHH)
VHH: EVQLVESGGGLVQTGDSLRLSCEVSGRTFSSYSMGWFRQAQGKEREFVVAISKGGYKYDSVSLEGRFTISKDNAKNTVYLQINSLKPEDTAVYYCASSRAYGSSRLRLADTYEYWGQGTQVTVSS
notes: also called VEGFBII23B4; VEGFBII23B04 (wt)

% inhibition, VEGF HUVEC proliferation assay (VEGF [2]): 92%
IC50 (nM), VEGF HUVEC proliferation assay (VEGF [2]): 0.6 nM
Kd [4]: 360 pM
Kd [9]: 750 pM
% inhibition [5]: 100%
IC50 [5]: 143 pM
IC50 (read off the curve) [10]: ~400 pM
IC50 (read off the curve) [11]: ~400 pM
IC50 (read off the curve) [12]: ~400 pM
IC50 (read off the curve) [13]: ~400 pM
IC50 (read off the curve) [14]: ~500 pM
IC50 (read off the curve) [15]: ~800 pM
IC50 (read off the curve) [16]: ~500 pM
IC50 (read off the curve) [17]: ~500 pM
IC50 (read off the curve) [18]: ~800 pM
IC50 (read off the curve) [19]: ~800 pM
IC50 (read off the curve) [20]: ~200 pM
IC50 (read off the curve) [21]: ~200 pM
IC50 (read off the curve) [22]: ~200 pM
B2: VEGFBII038 (VHH)
VHH: B1 VHH with E1D, T14P, D16G, E23A, V24A, Q41P, S60A, K71R, K86R, Q120L
notes: also called VEGFBII0038; VEGFBII00038
